Assay results from publication PMC9482650, “Quantitative fragmentomics allow affinity mapping of interactomes” (Nature Communications, 2022).

T1: DFNB31_1, Q9P202
T1 sequence (Q9P202 135-233, limits assumed, looked up): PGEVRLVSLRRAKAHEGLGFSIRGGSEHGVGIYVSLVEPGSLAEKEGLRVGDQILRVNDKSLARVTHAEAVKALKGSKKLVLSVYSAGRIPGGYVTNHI

T2: DLG3_1, Q92796
T2 sequence (Q92796 125-227, limits assumed, looked up): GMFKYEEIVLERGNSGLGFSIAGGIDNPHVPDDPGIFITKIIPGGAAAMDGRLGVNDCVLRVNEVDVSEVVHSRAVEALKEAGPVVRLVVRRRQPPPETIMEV

T3: DLG3_2, Q92796
T3 sequence (Q92796 221-321, limits assumed, looked up): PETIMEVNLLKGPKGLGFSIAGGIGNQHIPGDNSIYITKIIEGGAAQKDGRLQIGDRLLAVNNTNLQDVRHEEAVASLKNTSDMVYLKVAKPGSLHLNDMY

T4: GRIP1_2, Q9Y3R0
T4 sequence (Q9Y3R0 145-248, limits assumed, looked up): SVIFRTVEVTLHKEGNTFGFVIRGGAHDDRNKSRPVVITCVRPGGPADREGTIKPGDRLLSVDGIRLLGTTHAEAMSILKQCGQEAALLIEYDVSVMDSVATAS

T5: GRIP1_4, Q9Y3R0
T5 sequence (Q9Y3R0 467-571, limits assumed, looked up): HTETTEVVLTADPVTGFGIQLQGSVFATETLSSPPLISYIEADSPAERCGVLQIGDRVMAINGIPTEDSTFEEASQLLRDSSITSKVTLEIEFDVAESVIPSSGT

T6: HTRA3, P83110
T6 sequence (P83110 354-453, limits assumed, looked up): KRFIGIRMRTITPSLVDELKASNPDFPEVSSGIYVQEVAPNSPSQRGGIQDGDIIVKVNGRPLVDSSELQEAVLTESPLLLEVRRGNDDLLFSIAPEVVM

T7: LIN7B, Q9HAP6
T7 sequence (Q9HAP6 88-185, limits assumed, looked up): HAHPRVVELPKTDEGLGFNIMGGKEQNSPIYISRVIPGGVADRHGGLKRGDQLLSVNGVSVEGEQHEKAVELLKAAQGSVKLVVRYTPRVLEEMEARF

T8: MPDZ_10, O75970
T8 sequence (O75970 1624-1722, limits assumed, looked up): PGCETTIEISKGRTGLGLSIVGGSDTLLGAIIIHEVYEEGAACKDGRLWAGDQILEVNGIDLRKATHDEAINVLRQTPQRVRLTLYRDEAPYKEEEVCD

T9: PARD3B_1, Q8TEW8
T9 sequence (Q8TEW8 196-299, limits assumed, looked up): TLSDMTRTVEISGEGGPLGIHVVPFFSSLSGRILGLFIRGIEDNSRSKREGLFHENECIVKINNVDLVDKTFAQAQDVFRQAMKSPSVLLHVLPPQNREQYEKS

T10: PTPN13_1, Q12923
T10 sequence (Q12923 1088-1188, limits assumed, looked up): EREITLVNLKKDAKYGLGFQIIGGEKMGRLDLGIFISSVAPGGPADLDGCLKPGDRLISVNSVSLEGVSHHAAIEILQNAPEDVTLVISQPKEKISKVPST

T11: RHPN1, Q8TCX5
T11 sequence (Q8TCX5 508-602, limits assumed, looked up): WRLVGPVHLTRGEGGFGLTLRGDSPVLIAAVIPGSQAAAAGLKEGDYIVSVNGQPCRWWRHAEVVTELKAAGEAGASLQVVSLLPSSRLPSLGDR

T12: SYNJ2BP, P57105
T12 sequence (P57105 8-110, limits assumed, looked up): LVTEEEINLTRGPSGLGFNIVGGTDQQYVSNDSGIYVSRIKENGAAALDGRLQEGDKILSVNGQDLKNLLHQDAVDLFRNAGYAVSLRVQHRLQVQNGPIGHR


Target: T1, DFNB31_1, Q9P202
Experiment: holdup assay
Parameters: key: below the threshold = too weak to quantify, mostly under pKd 3.1 to 4
Conditions: plain residues with an end cap or a label only (N-terminal biotin on a linker: ado-ado)

Q: How did the pKd turn out when HLRARKSEWV [GJD4, Q96KN9] was run?
A: Its pKd is “below the threshold”.

Target: DLG1_3, Q12959
Sequence (Q12959 457-571): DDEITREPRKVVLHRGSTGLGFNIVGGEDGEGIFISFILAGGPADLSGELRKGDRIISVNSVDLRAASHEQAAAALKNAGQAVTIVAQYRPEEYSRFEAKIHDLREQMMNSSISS
Experiment: holdup assay
Parameters: key: below the threshold = too weak to quantify, mostly under pKd 3.1 to 4
Conditions: plain residues with an end cap or a label only (N-terminal biotin on a linker: ado-ado)

Q: HLRARKSEWV [GJD4, Q96KN9] was tested. Which pKd did it give?
A: The pKd was “below the threshold”.

Target: T2, DLG3_1, Q92796
Experiment: holdup assay
Parameters: key: below the threshold = too weak to quantify, mostly under pKd 3.1 to 4
Conditions: plain residues with an end cap or a label only (N-terminal biotin on a linker: ado-ado)

Q: For HLRARKSEWV [GJD4, Q96KN9], which pKd is on record?
A: The pKd was “below the threshold”.

Target: T3, DLG3_2, Q92796
Experiment: holdup assay
Parameters: key: below the threshold = too weak to quantify, mostly under pKd 3.1 to 4
Conditions: plain residues with an end cap or a label only (N-terminal biotin on a linker: ado-ado)

Q: Which pKd does the source give for HLRARKSEWV [GJD4, Q96KN9] here?
A: Its pKd is 4.33.

Target: DLG4_1, P78352
Sequence (P78352 62-152): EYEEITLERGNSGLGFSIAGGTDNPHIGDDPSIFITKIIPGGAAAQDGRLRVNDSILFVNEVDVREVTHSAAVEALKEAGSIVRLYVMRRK
Experiment: holdup assay
Parameters: key: below the threshold = too weak to quantify, mostly under pKd 3.1 to 4
Conditions: plain residues with an end cap or a label only (N-terminal biotin on a linker: ado-ado)

Q: With HLRARKSEWV [GJD4, Q96KN9] as the binder, how does the pKd read?
A: The pKd was “below the threshold”.

Target: GORASP2, Q9H8Y8
Experiment: holdup assay
Parameters: key: below the threshold = too weak to quantify, mostly under pKd 3.1 to 4
Conditions: plain residues with an end cap or a label only (N-terminal biotin on a linker: ado-ado)

Q: Which pKd does the source give for HLRARKSEWV [GJD4, Q96KN9] here?
A: Its pKd is 5.57.

Target: T4, GRIP1_2, Q9Y3R0
Experiment: holdup assay
Parameters: key: below the threshold = too weak to quantify, mostly under pKd 3.1 to 4
Conditions: plain residues with an end cap or a label only (N-terminal biotin on a linker: ado-ado)

Q: Which pKd does the source give for HLRARKSEWV [GJD4, Q96KN9] here?
A: The pKd was “below the threshold”.

Target: T5, GRIP1_4, Q9Y3R0
Experiment: holdup assay
Parameters: key: below the threshold = too weak to quantify, mostly under pKd 3.1 to 4
Conditions: plain residues with an end cap or a label only (N-terminal biotin on a linker: ado-ado)

Q: How did the pKd turn out when HLRARKSEWV [GJD4, Q96KN9] was run?
A: The pKd was “below the threshold”.

Target: HTRA1, Q92743
Sequence (Q92743 360-477): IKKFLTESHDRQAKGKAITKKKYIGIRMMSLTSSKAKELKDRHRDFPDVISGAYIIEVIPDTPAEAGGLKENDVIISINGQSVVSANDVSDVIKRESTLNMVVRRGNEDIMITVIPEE
Experiment: holdup assay
Parameters: key: below the threshold = too weak to quantify, mostly under pKd 3.1 to 4
Conditions: plain residues with an end cap or a label only (N-terminal biotin on a linker: ado-ado)

Q: With HLRARKSEWV [GJD4, Q96KN9] as the binder, how does the pKd read?
A: Its pKd is 4.38.

Target: T6, HTRA3, P83110
Experiment: holdup assay
Parameters: key: below the threshold = too weak to quantify, mostly under pKd 3.1 to 4
Conditions: plain residues with an end cap or a label only (N-terminal biotin on a linker: ado-ado)

Q: With HLRARKSEWV [GJD4, Q96KN9] as the binder, how does the pKd read?
A: The pKd was 5.81.

Target: IL16_1, Q14005
Sequence (Q14005 210-306): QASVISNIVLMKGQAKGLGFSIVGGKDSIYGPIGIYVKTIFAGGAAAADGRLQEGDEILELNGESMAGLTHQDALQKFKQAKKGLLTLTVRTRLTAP
Experiment: holdup assay
Parameters: key: below the threshold = too weak to quantify, mostly under pKd 3.1 to 4
Conditions: plain residues with an end cap or a label only (N-terminal biotin on a linker: ado-ado)

Q: Which pKd does the source give for HLRARKSEWV [GJD4, Q96KN9] here?
A: The pKd was “below the threshold”.

Target: Inadl_10, Q8NI35
Sequence (Q8NI35 1673-1763): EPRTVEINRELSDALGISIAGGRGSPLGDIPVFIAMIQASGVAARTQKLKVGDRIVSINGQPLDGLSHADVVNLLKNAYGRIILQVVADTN
Experiment: holdup assay
Parameters: key: below the threshold = too weak to quantify, mostly under pKd 3.1 to 4
Conditions: plain residues with an end cap or a label only (N-terminal biotin on a linker: ado-ado)

Q: HLRARKSEWV [GJD4, Q96KN9] was tested. Which pKd did it give?
A: Its pKd is “below the threshold”.

Target: Inadl_5, Q8NI35
Sequence (Q8NI35 673-780): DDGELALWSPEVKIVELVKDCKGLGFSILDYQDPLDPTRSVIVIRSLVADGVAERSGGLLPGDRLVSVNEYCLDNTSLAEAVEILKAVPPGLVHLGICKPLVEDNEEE
Experiment: holdup assay
Parameters: key: below the threshold = too weak to quantify, mostly under pKd 3.1 to 4
Conditions: plain residues with an end cap or a label only (N-terminal biotin on a linker: ado-ado)

Q: With HLRARKSEWV [GJD4, Q96KN9] as the binder, how does the pKd read?
A: The pKd was 5.11.

Target: Inadl_9, Q8NI35
Sequence (Q8NI35 1530-1615): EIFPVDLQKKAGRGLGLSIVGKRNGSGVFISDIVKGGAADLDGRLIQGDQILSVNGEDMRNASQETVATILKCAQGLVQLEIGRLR
Experiment: holdup assay
Parameters: key: below the threshold = too weak to quantify, mostly under pKd 3.1 to 4
Conditions: plain residues with an end cap or a label only (N-terminal biotin on a linker: ado-ado)

Q: Which pKd does the source give for HLRARKSEWV [GJD4, Q96KN9] here?
A: The pKd was 3.91.

Target: LAP2, Q96RT1
Sequence (Q96RT1 other isoform, or with tags, fused parts or gaps): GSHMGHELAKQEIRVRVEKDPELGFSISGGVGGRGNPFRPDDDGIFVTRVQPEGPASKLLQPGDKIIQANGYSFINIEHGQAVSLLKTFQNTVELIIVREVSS
Experiment: holdup assay
Parameters: key: below the threshold = too weak to quantify, mostly under pKd 3.1 to 4
Conditions: plain residues with an end cap or a label only (N-terminal biotin on a linker: ado-ado)

Q: For HLRARKSEWV [GJD4, Q96KN9], which pKd is on record?
A: The pKd was 4.11.

Target: T7, LIN7B, Q9HAP6
Experiment: holdup assay
Parameters: key: below the threshold = too weak to quantify, mostly under pKd 3.1 to 4
Conditions: plain residues with an end cap or a label only (N-terminal biotin on a linker: ado-ado)

Q: HLRARKSEWV [GJD4, Q96KN9] was tested. Which pKd did it give?
A: The pKd was 3.81.

Target: T8, MPDZ_10, O75970
Experiment: holdup assay
Parameters: key: below the threshold = too weak to quantify, mostly under pKd 3.1 to 4
Conditions: plain residues with an end cap or a label only (N-terminal biotin on a linker: ado-ado)

Q: How did the pKd turn out when HLRARKSEWV [GJD4, Q96KN9] was run?
A: Its pKd is “below the threshold”.

Target: NHERF4_4, Q86UT5
Sequence (Q86UT5 464-550): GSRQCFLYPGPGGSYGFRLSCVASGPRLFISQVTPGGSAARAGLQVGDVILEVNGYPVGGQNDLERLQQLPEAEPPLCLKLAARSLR
Experiment: holdup assay
Parameters: key: below the threshold = too weak to quantify, mostly under pKd 3.1 to 4
Conditions: plain residues with an end cap or a label only (N-terminal biotin on a linker: ado-ado)

Q: How did the pKd turn out when HLRARKSEWV [GJD4, Q96KN9] was run?
A: Its pKd is “below the threshold”.

Target: NOS1, P29475
Sequence (P29475 9-101): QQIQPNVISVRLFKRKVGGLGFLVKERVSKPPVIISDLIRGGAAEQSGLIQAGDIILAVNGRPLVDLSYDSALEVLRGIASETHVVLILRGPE
Experiment: holdup assay
Parameters: key: below the threshold = too weak to quantify, mostly under pKd 3.1 to 4
Conditions: plain residues with an end cap or a label only (N-terminal biotin on a linker: ado-ado)

Q: HLRARKSEWV [GJD4, Q96KN9] was tested. Which pKd did it give?
A: Its pKd is 4.89.

Target: T9, PARD3B_1, Q8TEW8
Experiment: holdup assay
Parameters: key: below the threshold = too weak to quantify, mostly under pKd 3.1 to 4
Conditions: plain residues with an end cap or a label only (N-terminal biotin on a linker: ado-ado)

Q: How did the pKd turn out when HLRARKSEWV [GJD4, Q96KN9] was run?
A: The pKd was “below the threshold”.

Target: T10, PTPN13_1, Q12923
Experiment: holdup assay
Parameters: key: below the threshold = too weak to quantify, mostly under pKd 3.1 to 4
Conditions: plain residues with an end cap or a label only (N-terminal biotin on a linker: ado-ado)

Q: With HLRARKSEWV [GJD4, Q96KN9] as the binder, how does the pKd read?
A: Its pKd is “below the threshold”.

Target: T11, RHPN1, Q8TCX5
Experiment: holdup assay
Parameters: key: below the threshold = too weak to quantify, mostly under pKd 3.1 to 4
Conditions: plain residues with an end cap or a label only (N-terminal biotin on a linker: ado-ado)

Q: For HLRARKSEWV [GJD4, Q96KN9], which pKd is on record?
A: Its pKd is “below the threshold”.

Target: T12, SYNJ2BP, P57105
Experiment: holdup assay
Parameters: key: below the threshold = too weak to quantify, mostly under pKd 3.1 to 4
Conditions: plain residues with an end cap or a label only (N-terminal biotin on a linker: ado-ado)

Q: With HLRARKSEWV [GJD4, Q96KN9] as the binder, how does the pKd read?
A: Its pKd is 4.2.

Target: TJP1_3, Q07157
Sequence (Q07157 416-512): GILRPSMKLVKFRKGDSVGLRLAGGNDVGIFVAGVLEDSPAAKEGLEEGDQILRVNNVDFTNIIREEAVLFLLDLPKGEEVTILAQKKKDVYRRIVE
Experiment: holdup assay
Parameters: key: below the threshold = too weak to quantify, mostly under pKd 3.1 to 4
Conditions: plain residues with an end cap or a label only (N-terminal biotin on a linker: ado-ado)

Q: Which pKd does the source give for HLRARKSEWV [GJD4, Q96KN9] here?
A: The pKd was 4.67.

Target: TJP2_1, Q9UDY2
Sequence (Q9UDY2 24-128): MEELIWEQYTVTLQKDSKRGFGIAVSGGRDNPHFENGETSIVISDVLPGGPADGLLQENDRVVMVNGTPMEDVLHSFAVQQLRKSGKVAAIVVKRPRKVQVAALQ
Experiment: holdup assay
Parameters: key: below the threshold = too weak to quantify, mostly under pKd 3.1 to 4
Conditions: plain residues with an end cap or a label only (N-terminal biotin on a linker: ado-ado)

Q: Which pKd does the source give for HLRARKSEWV [GJD4, Q96KN9] here?
A: Its pKd is 6.04.
